Experimental data from paper PMC7611526.

Key:
Experiment in all cases: EMSA
[1] = tested on: OCT4-del-73 (Homo sapiens)
[2] = tested on: OCT4-DBD (Homo sapiens)
[3] = tested on: OCT4-WT (Homo sapiens)

Substance	Kd [1] [nM]	Kd [2] [nM]	Kd [3] [nM]
LIN28B-nucleosome	0.949	–	–
LIN28B-DNA	0.85	4.53	1.44
